Reference: patent publication US20230233607A1

Biological target: CV1, an engineered high-affinity membrane receptor for CD47
Experiment: flow cytometry; HEK 293T cells with light-induced CV1 incubated with biotinylated CD47, detected by streptavidin-PE

- percent of engineered cells stained with CD47: > 80%
Substance: Biotinylated CD47 protein (from UniProt Q08722 19-135) (ligand)
